Assay results taken from article PMC6658013 (PLoS Pathogens, 2019).

Target: T1, prefusion-stabilized RSV F (DS-Cav1), subtype B (strain B9320), with C-terminal His tag and Strep-tag II … (human respiratory syncytial virus B, …, UniProt Q6V2E7, stabilised)
T1 construct: copies: 3 + 3
Experiment: SPR
Details: both partners purified

B1: RSD5-WT Fab (parental RSD5) (Fab, V domains shown)
VH: QVQLVESGGGVVQPGRPLRLSCAASGFAFNNFALHWVRQAPGKGPEWLAAVSYDGTSPYYAESVRARFSISRDNSKKTFYLQLDSLRPEDTAVYYCARGLGSGSYSWIGYFYAMDVWGRGTTVTVSS
VL: QSALTQPASVSGSPGQSITISCTGTSSDVGGYVYVAWYQQHPGTAPKLIIYDVSDRPSGVSNRFSGSKSGNTASLTISGLQAEDDADYYCISYTDRNTVVFGGGTKLTVL
binding result: binds
